Data on two substances can be found in article PMC8479633.

Experiment [1] concerns the target SMAD2 linker-MH2 construct, non-phosphorylated (S2LMH2). In words: SAXS with ensemble optimisation.
The target in experiment [2] is phosphomimetic full-length SMAD2 (S2FLEEE) (UniProt Q15796). In words: SAXS with ensemble optimisation.

Chain of phosphomimetic full-length SMAD2 (S2FLEEE) (from UniProt Q15796 1-467) (natural protein) (Q15796 whole entry): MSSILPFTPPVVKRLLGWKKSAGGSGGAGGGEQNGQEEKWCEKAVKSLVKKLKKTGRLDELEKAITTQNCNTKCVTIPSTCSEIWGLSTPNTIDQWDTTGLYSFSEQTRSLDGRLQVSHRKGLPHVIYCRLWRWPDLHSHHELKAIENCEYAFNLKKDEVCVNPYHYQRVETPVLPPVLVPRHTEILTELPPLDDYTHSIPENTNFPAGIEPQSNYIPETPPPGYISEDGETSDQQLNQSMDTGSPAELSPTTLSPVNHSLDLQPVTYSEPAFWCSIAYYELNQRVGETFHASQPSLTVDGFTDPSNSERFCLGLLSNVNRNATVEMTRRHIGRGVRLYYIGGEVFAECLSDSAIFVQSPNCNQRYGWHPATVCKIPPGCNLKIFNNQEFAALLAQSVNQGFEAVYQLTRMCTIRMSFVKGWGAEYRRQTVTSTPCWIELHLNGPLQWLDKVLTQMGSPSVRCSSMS
Chain of SMAD2 linker-MH2 construct, non-phosphorylated (S2LMH2) (domain or fragment) (Q15796 269-467): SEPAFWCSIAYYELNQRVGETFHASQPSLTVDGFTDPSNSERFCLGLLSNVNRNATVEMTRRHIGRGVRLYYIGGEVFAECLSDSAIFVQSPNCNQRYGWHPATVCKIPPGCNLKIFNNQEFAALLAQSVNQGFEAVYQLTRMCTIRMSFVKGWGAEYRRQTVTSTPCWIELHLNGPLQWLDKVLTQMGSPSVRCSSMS

In experiment [1], “SMAD2 linker-MH2 construct, non-phosphorylated (S2LMH2) (domain or fragment)” registered a percent of the population as dimer of 25%. In experiment [2], “phosphomimetic full-length SMAD2 (S2FLEEE) (from UniProt Q15796 1-467) (natural protein)” returned a percent of the population as dimer of 36% and a percent of the population as trimer of 44.8%.
